Tests used:
[1] = target: T1, murine lipopolysaccharide binding protein (mLBP-His6) (Mus musculus, UniProt Q61805 25-481); assay: nitrocellulose filter binding; affinity comparable to A011, among the best binders (screen range about 200-800 nM); 140 mM NaCl, 2.7 mM KCl, 10 mM Na2HPO4, 1.76 mM KH2PO4, 2 mM MgCl2; pH not stated; 37 °C, 1 h; RNA refolded; mLBP 15-1000 nM; settings: protein: recombinant; tags: C-terminal His6; label: 32P; three-helix junction (predicted)
T1 sequence: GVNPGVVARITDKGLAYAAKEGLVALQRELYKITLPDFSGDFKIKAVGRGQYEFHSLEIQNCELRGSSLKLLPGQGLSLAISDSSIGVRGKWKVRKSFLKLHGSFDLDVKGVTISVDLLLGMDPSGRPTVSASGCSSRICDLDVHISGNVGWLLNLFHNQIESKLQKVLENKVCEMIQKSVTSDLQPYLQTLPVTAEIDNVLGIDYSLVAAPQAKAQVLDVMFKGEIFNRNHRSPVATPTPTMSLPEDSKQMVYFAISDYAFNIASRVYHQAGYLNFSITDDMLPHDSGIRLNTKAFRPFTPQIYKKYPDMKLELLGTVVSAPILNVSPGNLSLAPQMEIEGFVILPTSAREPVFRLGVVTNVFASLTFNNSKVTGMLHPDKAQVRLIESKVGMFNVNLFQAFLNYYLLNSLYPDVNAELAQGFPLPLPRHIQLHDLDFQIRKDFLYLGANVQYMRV

[2] = target: T1, murine lipopolysaccharide binding …; assay: boundary experiment, nitrocellulose filter retention; 200 or 400 nM mLBP; no apparent effect on affinity; 140 mM NaCl, 2.7 mM KCl, 10 mM Na2HPO4, 1.76 mM KH2PO4, 2 mM MgCl2; pH not stated; 37 °C, 1 h; RNA refolded; mLBP 15-1000 nM; settings: protein: recombinant; tags: C-terminal His6; label: 5' 32P; P1 pairs U6-G11 with C65-A70
EF-Tu = EF-Tu (Thermus thermophilus, UniProt Q5SHN6 2-406); assay: nitrocellulose filter binding; 140 mM NaCl, 2.7 mM KCl, 10 mM Na2HPO4, 1.76 mM KH2PO4, 2 mM MgCl2; pH not stated; 37 °C, 1 h; RNA refolded; mLBP 15-1000 nM; settings: label: 32P (internal or 5'); three-helix junction, helices P1-P4
Sequence of EF-Tu (Q5SHN6 2-406): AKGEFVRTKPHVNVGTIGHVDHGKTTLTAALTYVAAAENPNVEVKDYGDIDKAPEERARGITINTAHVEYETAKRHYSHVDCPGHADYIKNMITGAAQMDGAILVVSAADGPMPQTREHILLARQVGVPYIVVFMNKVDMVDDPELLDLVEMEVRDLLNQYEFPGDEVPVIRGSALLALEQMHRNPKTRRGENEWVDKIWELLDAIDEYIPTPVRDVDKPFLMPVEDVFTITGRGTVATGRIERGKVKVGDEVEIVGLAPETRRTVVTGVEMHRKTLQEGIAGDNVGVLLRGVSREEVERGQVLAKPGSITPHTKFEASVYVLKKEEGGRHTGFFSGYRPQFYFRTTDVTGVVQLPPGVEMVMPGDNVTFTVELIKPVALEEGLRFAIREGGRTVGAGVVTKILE

[3] = target: T1, murine lipopolysaccharide binding …; assay: nitrocellulose filter binding; 2 mM MgCl2; 140 mM NaCl, 2.7 mM KCl, 10 mM Na2HPO4, 1.76 mM KH2PO4, 2 mM MgCl2; pH not stated; 37 °C, 1 h; RNA refolded; mLBP 15-1000 nM; settings: protein: recombinant; tags: C-terminal His6; label: 32P (internal or 5'); three-helix junction, helices P1-P4
[4] = target: T1, murine lipopolysaccharide binding …; assay: 140 mM NaCl, 2.7 mM KCl, 10 mM Na2HPO4, 1.76 mM KH2PO4, 2 mM MgCl2; pH not stated; 37 °C, 1 h; RNA refolded; mLBP 15-1000 nM; settings: protein: recombinant; tags: C-terminal His6; three-helix junction

B1: A036 (XNA)
RNA: GGGAAUUCGAGCUCGGUACCGAUAUACGGUGCCGCUUCUCUAACCGGUGGUCAUGCGGUUGGACGCUCGAACAGACUACUGCAGGCAUGCAAGCUUGG
modifications: 2'-fluoro C and U
[1]
  binding result: binds

B2: A011 1-70 (3' boundary fragment) (XNA)
RNA: GGGAAUUCGAGCUCGGUACCGGACUGUGGAUUGUUCUGGGUGCCGCUUCUCCGAAUAUCGGACUCUCGAA
modifications: 2'-fluoro C and U
[2]
  binding result: binds

B3: A011 (XNA)
RNA: GGGAAUUCGAGCUCGGUACCGGACUGUGGAUUGUUCUGGGUGCCGCUUCUCCGAAUAUCGGACUCUCGAACUCCUGGGGACUGCAGGCAUGCAAGCUUGG
modifications: 2'-fluoro C and U (all pyrimidines); A and G ribo
EF-Tu
  binding result: no binding
[3]
  Kd: 267 nM

B4: A011 del 76-100 (XNA)
RNA: GGGAAUUCGAGCUCGGUACCGGACUGUGGAUUGUUCUGGGUGCCGCUUCUCCGAAUAUCGGACUCUCGAACUCCU
modifications: 2'-fluoro C and U
[4]
  binding signal: ~5 fold reduction in affinity vs A011
